Experiments:
[1] = molecular target: human sodium-dependent phosphate transporter 2B (NaPi2b) (human) (UniProt O95436); test: flow cytometry competition on HEK293-6e cells expressing human NaPi2b; row antibody unlabeled at 100 µg/mL (the reference of the calculation); competitor: AF647-labeled v23855 at 1 µg/mL
[2] = molecular target: human sodium-dependent phosphate transporter 2B (NaPi2b) (human) (UniProt O95436); test: flow cytometry competition on HEK293-6e cells expressing human NaPi2b; row antibody unlabeled at 100 µg/mL (the reference of the calculation); competitor: AF647-labeled v18992 (MX35) at 1 µg/mL
[3] = molecular target: human sodium-dependent phosphate transporter 2B (NaPi2b) (human) (UniProt O95436); test: flow cytometry competition on HEK293-6e cells expressing human NaPi2b; row antibody unlabeled at 100 µg/mL (the reference of the calculation); competitor: AF647-labeled v18993 (lifastuzumab) at 1 µg/mL

human sodium-dependent phosphate transporter 2B (NaPi2b) (human), sequence (O95436 whole entry): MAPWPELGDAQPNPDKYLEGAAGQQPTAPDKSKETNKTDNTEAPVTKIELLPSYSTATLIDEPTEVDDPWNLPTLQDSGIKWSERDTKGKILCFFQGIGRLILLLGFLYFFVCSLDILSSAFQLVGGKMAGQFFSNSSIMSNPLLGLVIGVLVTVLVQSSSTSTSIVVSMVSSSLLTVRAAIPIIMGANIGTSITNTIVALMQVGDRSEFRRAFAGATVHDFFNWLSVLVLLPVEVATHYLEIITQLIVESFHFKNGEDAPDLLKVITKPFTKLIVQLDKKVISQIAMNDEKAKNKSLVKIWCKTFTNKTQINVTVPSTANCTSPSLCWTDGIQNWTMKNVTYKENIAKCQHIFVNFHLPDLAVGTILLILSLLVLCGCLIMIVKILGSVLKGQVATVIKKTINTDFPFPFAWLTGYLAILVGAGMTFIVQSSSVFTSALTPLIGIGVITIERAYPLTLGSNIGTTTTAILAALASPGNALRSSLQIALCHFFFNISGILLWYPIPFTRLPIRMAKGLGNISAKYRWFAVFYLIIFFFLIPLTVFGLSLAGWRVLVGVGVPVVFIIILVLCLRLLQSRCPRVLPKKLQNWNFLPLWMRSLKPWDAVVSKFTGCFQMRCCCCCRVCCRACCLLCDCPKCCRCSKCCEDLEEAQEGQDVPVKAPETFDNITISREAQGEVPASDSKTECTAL

% inhibition vs. irrelevant mAb [1]: 0% | % inhibition vs. irrelevant mAb [2]: 0% | % inhibition vs. irrelevant mAb [3]: 0%
Substance: v16955, palivizumab (anti-RSV) negative control (antibody)

— patent US20250277030A1, “ANTI-NAPI2B ANTIBODIES AND METHODS OF USE” (Zymeworks BC Inc., priority 2022, published 2025)
